{"source": "patent US20170320967A1", "about": "(published 2017)", "binders": {"B1": {"name": "Binding Protein 18, (anti-IL4 × anti-IL13) × anti-IL13 (bispecific antibody, human IgG1, kappa, lambda)", "heavy 1": "not shown", "light 1": "DIVLTQSPASLAVSLGQRATISCRASESVDSYGQSYMHWYQQKAGQPPKLLIYLASNLESGVPARFSGSGSRTDFTLTIDPVQAEDAATYYCQQNAEDSRTFGGGTKLEIKGQPKAAPSVTLFPPSSEELQANKATLVCLISDFYPGAVTVAWKADSSPVKAGVETTTPSKQSNNKYAASSYLSLTPEQWKSHRSYSCQVTHEGSTVEKTVAPTECS", "heavy 2": "not shown", "light 2": "not shown", "notes": "Bispecific trivalent (CODV-Fab) × Fab-IgG1 Fc; kappa on CODV-LC, lambda on Fab-arm-LC; CODV-HC knob-RF, Fab-arm-HC hole; also called IL13 × (IL4 × IL13)"}}, "biological_target": "T1, recombinant human IL4 (human, UniProt P05112 25-153)", "T1 construct": "Bought protein; also called human IL4 (Millipore catalog # IL004)", "T1 sequence (looked up)": "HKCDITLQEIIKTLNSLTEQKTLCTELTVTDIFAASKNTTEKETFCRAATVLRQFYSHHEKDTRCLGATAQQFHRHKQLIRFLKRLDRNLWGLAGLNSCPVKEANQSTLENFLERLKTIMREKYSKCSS", "experiment": "SPR (Biacore), captured antibody, IL4 as analyte", "data": [{"binder": "B1", "values": [{"measurement": "Kd", "value": 1.02, "unit": "pM"}]}]}
